A short description of data set [1]: BTK FAC plasma stability assay, dog plasma. The format is in vitro ADME.
Data set [2] in a line: BTK FAC plasma stability assay, mouse plasma. The format is in vitro ADME. On the procedure: (§1) Plasma stability was conducted in Dulbecco's PBS buffer, mouse plasma, rat plasma or human plasma frozen with K3-EDTA from BiolVT). Thawed plasma was centrifuged prior to warming for 5 minutes at 37° C. Working solutions were prepared from 10 mM DMSO solution to 500 µM in acetonitrile:water (1:1); 2 µL of working solution was added to 198 µL blank plasma or PBS and mixed manually. 4×45 µL of spiked matrix was aliquoted into glass incubation plates (96-well DW glass microplate) and sealed with blue silicon/PTFE seal; then incubated on a Thermo shaker (38° C. 300 RPM). Samples were prepared at 0, 2, 6 and 24 h timepoints, by protein precipitation with chilled acetonitrile containing internal standard Glyburide (0.2 µM). Precipitated samples were shaken for 10 minutes and stored at 4° C. until completion of the study. Following precipitation of the terminal sample, samples were frozen at −80° C. for 1 hour. Samples were then thawed prior to centrifugation (20 minutes, 4500 RPM at 4° C.). 50 µL of supernatant of each sample was transferred to 384 well analysis plate containing 30 µL of water. Semi quantitative analysis (analyte: internal standard peak area ratio) was performed by LC-MS/MS using a Sciex QTrap 5500.

Data set [3] is described as follows: BTK FAC plasma stability assay, PBS buffer arm. The format is physicochemical. To be noted: for Plasma stability (h) PBS: incubation to 24 h. On the procedure: as §1
Data set [4] in a line: BTK FAC plasma stability assay, rat plasma. The format is in vitro ADME. On the procedure:
as §1

With `CCCCCCCCCCCN(C(=O)CCCCCCCCCC(=O)O)C(CCC(=O)NCCOCCOCCOCCOCCOCCOCCOCCOCCC(=O)NCC(=O)OC(C)(C)c1ccc(C(=O)Nc2cc(F)cc(-c3ncnc4[nH]c(-c5ccc(CCN6CCC7(CC6)CCN(C(=O)c6ccc(OC)c(N8CCC(=O)NC8=O)c6)CC7)cc5)cc34)c2C)c(F)c1)C(=O)O` (stereo not shown) [Example A8, 38-Carboxy-2-(4-((3-(6-(4-(2-(9-(3-(2,4-dioxotetrahydropyrimidin-(2H)-yl)-4-methoxybenzoyl)-3,9-diazaspiro[5.5]undecan-3-yl)ethyl)phenyl)-7H-pyrrolo[2,3-d]pyrimidin-4-yl)-5-fluoro-2-methylphenyl)carbamoyl)-3-fluorophenyl)-2-methyl-4,7,35,40-tetraoxo-39-undecyl-3,10,13,16,19,22,25,28,31-nonaoxa-6,34,39-triazapentacontan-50-oic acid], in data set [1], the “Plasma stability (h) dog” value is given as over 48 h and the “% Release of degrader after 24 h dog” value is on record as 13.1%. In data set [2], the “% Release of degrader after 24 h mouse” value stood at 20.1%. For the same molecule, the “Plasma stability (h) mouse” value in data set [2] (incubation to 24 h) was over 48 h. For the same molecule, in data set [3], the “% Release of degrader after 24 h PBS” value was found to be 2.8% and the “Plasma stability (h) PBS” value was over 48 h. Moreover, the “% Release of degrader after 24 h rat” value in data set [4] is listed as 18.1%. In addition, the “Plasma stability (h) rat” value in data set [4] (incubation to 24 h) is recorded as over 48 h.
In the case of `CCCCCCCCCCCN(C(=O)CCCCCCCCCC(=O)O)C(CCC(=O)NCCOCCOCCOCCOCCOCCOCCOCCOCCOCCOCCOCCOCCC(=O)NCC(=O)NCn1c(-c2ccc(CCN3CCC4(CC3)CCN(C(=O)c3ccc(OC)c(N5CCC(=O)NC5=O)c3)CC4)cc2)cc2c(-c3cc(F)cc(NC(=O)c4ccc(C(C)(C)O)cc4F)c3C)ncnc21)C(=O)O` (stereo not shown) [Example A38, 49-Carboxy-1-(6-(4-(2-(9-(3-(2,4-dioxotetrahydropyrimidin-1(2H)-yl)-4-methoxybenzoyl)-3,9-diazaspiro[5.5]undecan-3-yl)ethyl)phenyl)-4-(5-fluoro-3-(2-fluoro-4-(2-hydroxypropan-2-yl)benzamido)-2-methylphenyl)-7H-pyrrolo[2,3-d]pyrimidin-7-yl)-3,6,46,51-tetraoxo-50-undecyl-9,12,15,18,21,24,27,30,33,36,39,42-dodecaoxa-2,5,45,50-tetraazahenhexacontan-61-oic acid], in data set [1], the “Plasma stability (h) dog” value is over 48 h and the “% Release of degrader after 24 h dog” value was 0.1%. The “% Release of degrader after 24 h mouse” value in data set [2] was 0.1%. In addition, the “Plasma stability (h) mouse” value in data set [2] (incubation to 24 h) was over 48 h. In data set [3], the “% Release of degrader after 24 h PBS” value stood at 0.2% and the “Plasma stability (h) PBS” value is recorded as over 48 h. The “% Release of degrader after 24 h rat” value in data set [4] came to 0.1%. For the same molecule, the “Plasma stability (h) rat” value in data set [4] (incubation to 24 h) was over 48 h.
As to `CCCCCCCCCCCN(C(=O)CCCCCCCCCC(=O)O)C(CCC(=O)NCCOCCOCCOCCOCCOCCOCCOCCOCCOCCOCCOCCOCCC(=O)N1CCC(F)(C(=O)OC(C)(C)c2ccc(C(=O)Nc3cc(F)cc(-c4ncnc5[nH]c(-c6ccc(CCN7CCC8(CC7)CCN(C(=O)c7ccc(OC)c(N9CCC(=O)NC9=O)c7)CC8)cc6)cc45)c3C)c(F)c2)CC1)C(=O)O` (stereo not shown) [Example A15, 44-Carboxy-1-(4-(((2-(4-((3-(6-(4-(2-(9-(3-(2,4-dioxotetrahydropyrimidin-1(2H)-yl)-4-methoxybenzoyl)-3,9-diazaspiro[5.5]undecan-3-yl)ethyl)phenyl)-7H-pyrrolo[2,3-d]pyrimidin-4-yl)-5-fluoro-2-methylphenyl)carbamoyl)-3-fluorophenyl)propan-2-yl)oxy)carbonyl)-4-fluoropiperidin-1-yl)-1,41,46-trioxo-45-undecyl-4,7,10,13,16,19,22,25,28,31,34,37-dodecaoxa-40,45-diazahexapentacontan-56-oic acid], in data set [1], the “Plasma stability (h) dog” value is 23 h and the “% Release of degrader after 24 h dog” value amounted to 22.5%. In addition, in data set [2], the “% Release of degrader after 24 h mouse” value amounted to 96.9%. For the same molecule, the “Plasma stability (h) mouse” value in data set [2] (incubation to 24 h) is reported as under 2 h. In data set [3], the “% Release of degrader after 24 h PBS” value came to 0% and the “Plasma stability (h) PBS” value is reported as over 48 h. For the same molecule, the “% Release of degrader after 24 h rat” value in data set [4] is reported as 39.4%. For the same molecule, the “Plasma stability (h) rat” value in data set [4] (incubation to 24 h) is reported as 30 h.
Regarding `CCCCCCCCCCCN(C(=O)CCCCCCCCCC(=O)O)[C@@H](CCC(=O)N(CCNC(=O)CCOCCOCCOCCOCCOCCOCCOCCOCCOCCOCCOCCOC)CC(=O)OC(C)(C)c1ccc(C(=O)Nc2cc(F)cc(-c3ncnc4[nH]c(-c5ccc(CCN6CCC7(CC6)CCN(C(=O)c6ccc(OC)c(N8CCC(=O)NC8=O)c6)CC7)cc5)cc34)c2C)c(F)c1)C(=O)O` [Example A37, (S)-46-Carboxy-42-(2-((2-(4-((3-(6-(4-(2-(9-(3-(2,4-dioxotetrahydropyrimidin-1(2H)-yl)-4-methoxybenzoyl)-3,9-diazaspiro[5.5]undecan-3-yl)ethyl)phenyl)-7H-pyrrolo[2,3-d]pyrimidin-4-yl)-5-fluoro-2-methylphenyl)carbamoyl)-3-fluorophenyl)propan-2-yl)oxy)-2-oxoethyl)-38,43,48-trioxo-47-undecyl-2,5,8,11,14,17,20,23,26,29,32,35-dodecaoxa-39,42,47-triazaoctapentacontan-58-oic acid], in data set [1], the “% Release of degrader after 24 h dog” value turned out to be 2.2%. For the same molecule, the half-life at 5 µM in data set [1] (read-out: Plasma stability (h) dog (converted)) is 44.7 h; in data set [2] (incubation to 24 h), over 48 h; in data set [4] (incubation to 24 h) it was over 48 h. Moreover, in data set [2], the “% Release of degrader after 24 h mouse” value was determined as 2.1%. In data set [3], the “% Release of degrader after 24 h PBS” value is 1.7%. Further, the “Plasma stability (h) PBS” value in data set [3] was over 48 h. Moreover, the “% Release of degrader after 24 h rat” value in data set [4] is recorded as 1.5%.
In the case of `CCCCCCCCCCCN(C(=O)CCCCCCCCCC(=O)O)C(CCC(=O)NCCOCCOCCOCCOCCOCCOCCOCCOCCOCCOCCOCCOCCC(=O)NCCOP(=O)(O)OC(C)(C)c1ccc(C(=O)Nc2cc(F)cc(-c3ncnc4[nH]c(-c5ccc(CCN6CCC7(CC6)CCN(C(=O)c6ccc(OC)c(N8CCC(=O)NC8=O)c6)CC7)cc5)cc34)c2C)c(F)c1)C(=O)O` (stereo not shown) [Example A39, 47-Carboxy-1-((((2-(4-((3-(6-(4-(2-(9-(3-(2,4-dioxotetrahydropyrimidin-1(2H)-yl)-4-methoxybenzoyl)-3,9-diazaspiro[5.5]undecan-3-yl)ethyl)phenyl)-7H-pyrrolo[2,3-d]pyrimidin-4-yl)-5-fluoro-2-methylphenyl)carbamoyl)-3-fluorophenyl)propan-2-yl)oxy)(hydroxy)phosphoryl)oxy)-4,44,49-trioxo-48-undecyl-7,10,13,16,19,22,25,28,31,34,37,40-dodecaoxa-3,43,48-triazanonapentacontan-59-oic acid], in data set [1], the “Plasma stability (h) dog” value was found to be 39.0 h and the “% Release of degrader after 24 h dog” value is reported as 0%. In addition, the “% Release of degrader after 24 h mouse” value in data set [2] is 0%. In data set [2] (incubation to 24 h), the “Plasma stability (h) mouse” value was over 48 h. In data set [3], the “% Release of degrader after 24 h PBS” value was found to be 0% and the “Plasma stability (h) PBS” value is recorded as over 48 h. Also, in data set [4], the “% Release of degrader after 24 h rat” value was 0%. The “Plasma stability (h) rat” value in data set [4] (incubation to 24 h) is over 48 h.

For the origin of these results see patent US20240216513A1, “FATTY ACID-BIFUNCTIONAL DEGRADER CONJUGATES AND THEIR METHODS OF USE” (Novartis AG, priority 2021, published 2024).
